# Laboratory results reported in patent publication US20090136503A1 (BEIJING COTIMES BIOTECH, published 2009).
# Residue numbers refer to the chain shown, from its start. Read-outs that look alike come from different tables or passages of the source.
# T1: TRAIL-R4-Fc fusion protein (human, UniProt Q9UBN6 56-211)
# T1 construct: The origin of the protein is not described; also called TRAIL-R4-Fc fusion antigen; not shown: human IgG1 Fc
# T1 sequence (looked up): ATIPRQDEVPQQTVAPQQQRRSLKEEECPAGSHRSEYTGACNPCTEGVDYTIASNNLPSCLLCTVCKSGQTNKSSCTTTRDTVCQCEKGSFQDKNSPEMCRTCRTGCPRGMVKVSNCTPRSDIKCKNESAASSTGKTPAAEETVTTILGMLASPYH
# T2: TRAIL-R3-Fc fusion protein (human, UniProt O14798 26-221, limits assumed)
# T2 construct: The origin of the protein is not described; also called TRAIL-R3-Fc fusion antigen; not shown: human IgG1 Fc
# T2 sequence (looked up): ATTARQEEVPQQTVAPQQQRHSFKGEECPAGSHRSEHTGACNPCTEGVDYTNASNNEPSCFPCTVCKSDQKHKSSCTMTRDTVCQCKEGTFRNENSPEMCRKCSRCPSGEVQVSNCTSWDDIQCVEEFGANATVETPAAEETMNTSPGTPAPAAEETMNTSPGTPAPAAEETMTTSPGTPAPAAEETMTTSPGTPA
# B1: Human chimeric CTB007 (mouse-human chimeric antibody) (antibody, V domains shown)
# VH: EVQLQQSGAELVKPGASVKLSCTASGFNIKDTYMHWVKQRPEQGLEWIGRIDPANGNTKYDPKFQGKATITADTSSNTAYLQLSSLTSEDTAVYYCAYYYVSNAWFTYWGQGTLVTVSA
# VL: DIQMTQSPASLSVSVGETVTITCRASENIYSNLEWYQQKQGKSPQLLVYAATNLADGVPSRFSGSGSGTQYSLKINSLQSEDFGSYYCQHFWGTWTFGGGTKLEIKR
# notes: Human IgG1 / kappa constant regions, made in CHO cells; also called hCTB007; HuCTB007
# B2: CTB003 murine monoclonal antibody (hybridoma CGMCC 1665) (antibody, mouse IgG1, V domains shown)
# VH: EVHLVESGGGLVRPGGSLKLSCAASGFAFSSYDMSWVRQTPEKRLEWVAYISDGGGITYYPDTMKGRLTISRDNAKNTLSLQMSSLKSEDTAMYYCARHITMVVGPFAYWGQGTLVTVSA
# VL: DIQMTQSSSSFSVSLGDRVTITCKAGEDIYNRLAWYQQKPGNAPRLLISGATNLETGVPSRFSGSGSGKDYTLSITSLQTEDVATYYCQQYWSTPLTFGAGTKLELK
# notes: also called murine CTB003; parental murine CTB003
# B3: Human chimeric CTB003 (mouse-human chimeric antibody) (antibody, human IgG1, V domains shown)
# VH: B2 VH with L68F
# VL: DIQMTQSSSSFSVSLGDRVTITCKASEDIYNRLAWYQQKPGNAPRLLISGATSLETGVPSRFSGSGSGKDYTLSITSLQTEDVATYYCQQYWSTPLTFGAGTKLELKR
# notes: Human IgG1 / kappa constant regions, made in CHO cells; also called hCTB003; HuCTB003
# B4: CTB006 murine monoclonal antibody against TRAIL-R2 (hybridoma CGMCC 1691) (antibody, V domains shown)
# VH: QVQLQQPGPELVKPGASVRMSCKASGYTFTSYFIHWVKQRPGQGLEWIGWIYPGNVNTKYSEKFKGKATLTADKSSSTAYMQFSSLTSEDSAVYFCARGEAGYFDYWGQGTTLTVSS
# VL: DIVMTQSHKFMSTSVGDRVSITCKASQDVSTAVAWYQQKPGQSPRLLIYWASTRHTGVPDRFTGSGSGTDYTLTISSVQAEDQALYYCQQHYRTPWTFGGGTKLEIK
# notes: Murine monoclonal antibody; also called Anti-TRAIL-R2 (CTB006); CTB006-HRP
# B5: Human chimeric CTB006 (mouse-human chimeric antibody) (antibody, V domains shown)
# VH: B4 VH with Q1E, P7S
# VL: DIVMTQSHKFMSTSVGDRVSITCKASQDVSTAVAWYQQKPGQSPRLLIYWASTRHTGVPDRFTGSGSGTDYTLTISSVQAEDQALYYCQQHYRTPWTFGGGTKLEIKR
# notes: Human IgG1 / kappa constant regions, made in CHO cells; also called hCTB006; HuCTB006
# Assays:
# [1] = target: T1, TRAIL-R4-Fc fusion protein; assay: ELISA: plate coated with TRAIL-R4-Fc at 1 µg/ml, HRP goat anti-human kappa, TMB
# [2] = target: T2, TRAIL-R3-Fc fusion protein; assay: ELISA: plate coated with TRAIL-R3-Fc at 1 µg/ml, HRP goat anti-human kappa, TMB
# [3] = target: TRAIL-R1 on the surface of human tumor cells (human, UniProt O00220 24-468); assay: cell-based or functional assay
# [4] = target: T3, BSA (bovine serum albumin), negative control (bovine, UniProt P02769 25-607); assay: ELISA: plate coated with BSA (control) at 1 µg/ml, HRP goat anti-human kappa, TMB
# [5] = target: T4, Heterodimeric TRAIL-R1-Fc/TRAIL-R2-Fc fusion protein (human, UniProt O00220 24-239; O14763 56-210); assay: ELISA: plate coated with TRAIL-R1/TRAIL-R2-Fc heterodimer at 1 µg/ml, CTB003 titrated, HRP anti-mouse IgG, TMB, OD 450/650
# T4 construct: extracellular domain; also called TRAIL-R1/TRAIL-R2 dimer; TRAIL-R1/TRAIL-R2 heterodimer antigen; not shown: Fc portion of human IgG1
# [6] = target: T1, TRAIL-R4-Fc fusion protein; assay: ELISA: plate coated with TRAIL-R4-Fc at 1 µg/ml, HRP goat anti-mouse IgG1, TMB
# [7] = target: T5, TRAIL-R2 on the surface of human tumor cells (human, UniProt O14763 56-440); assay: cell-based or functional assay
# [8] = target: TRAIL-R1 and/or TRAIL-R2 on human cancer cells; assay: cell-based or functional assay
# [9] = target: T2, TRAIL-R3-Fc fusion protein; assay: ELISA: plate coated with TRAIL-R3-Fc at 1 µg/ml, CTB003 titrated, HRP anti-mouse IgG, TMB, OD 450/650
# [10] = target: T3, BSA (bovine serum albumin), negative …; assay: ELISA: plate coated with BSA (control) at 1 µg/ml, HRP goat anti-mouse IgG1, TMB
# [11] = target: T6, TRAIL-R1-Fc fusion protein (human, UniProt O00220 24-239); assay: ELISA: plate coated with TRAIL-R1-Fc at 1 µg/ml, CTB003 titrated, HRP anti-mouse IgG, TMB, OD 450/650
# T6 construct: extracellular domain; also called TRAIL-R1-Fc fusion antigen; not shown: Fc portion of human IgG1
# [12] = target: T2, TRAIL-R3-Fc fusion protein; assay: ELISA: plate coated with TRAIL-R3-Fc at 1 µg/ml, HRP goat anti-human kappa, TMB; remark: listed apart in the source
# [13] = target: T4, Heterodimeric TRAIL-R1-Fc/TRAIL-R2-Fc …; assay: ELISA: plate coated with TRAIL-R1/TRAIL-R2-Fc heterodimer at 1 µg/ml, HRP goat anti-human kappa, TMB
# [14] = target: T6, TRAIL-R1-Fc fusion protein; assay: ELISA: plate coated with TRAIL-R1-Fc at 1 µg/ml, HRP goat anti-human kappa, TMB
# [15] = target: T3, BSA (bovine serum albumin), negative …; assay: ELISA: plate coated with BSA (control) at 1 µg/ml, HRP goat anti-human kappa, TMB; remark: listed apart in the source
# [16] = target: T1, TRAIL-R4-Fc fusion protein; assay: ELISA: plate coated with TRAIL-R4-Fc at 1 µg/ml, HRP goat anti-human kappa, TMB; remark: listed apart in the source
# [17] = target: T2, TRAIL-R3-Fc fusion protein; assay: ELISA: plate coated with TRAIL-R3-Fc at 1 µg/ml, HRP goat anti-mouse IgG, TMB
# [18] = target: T5, TRAIL-R2 on the surface of human tumor …; assay: cell-based or functional assay; remark: listed apart in the source
# [19] = target: Human IgG1 (control antigen) (human); assay: ELISA; human IgG1 captured on goat anti-human IgG, antibody at 2 µg/ml
# [20] = target: T1, TRAIL-R4-Fc fusion protein; assay: ELISA: plate coated with TRAIL-R4-Fc at 1 µg/ml, HRP goat anti-mouse IgG, TMB
# [21] = target: T4, Heterodimeric TRAIL-R1-Fc/TRAIL-R2-Fc …; assay: ELISA: plate coated with TRAIL-R1/TRAIL-R2-Fc heterodimer at 1 µg/ml, HRP goat anti-human kappa, TMB; remark: listed apart in the source
# [22] = target: T2, TRAIL-R3-Fc fusion protein; assay: ELISA: plate coated with TRAIL-R3-Fc at 1 µg/ml, HRP goat anti-human kappa, TMB; remark: listed apart in the source
# [23] = target: T1, TRAIL-R4-Fc fusion protein; assay: ELISA: plate coated with TRAIL-R4-Fc at 1 µg/ml, HRP goat anti-human kappa, TMB; remark: listed apart in the source
# [24] = target: T6, TRAIL-R1-Fc fusion protein; assay: ELISA: plate coated with TRAIL-R1-Fc at 1 µg/ml, HRP goat anti-human kappa, TMB; remark: listed apart in the source
# [25] = target: T3, BSA (bovine serum albumin), negative …; assay: ELISA: plate coated with BSA (control) at 1 µg/ml, HRP goat anti-human kappa, TMB; remark: listed apart in the source
# T3 sequence (P02769 25-607 limits assumed): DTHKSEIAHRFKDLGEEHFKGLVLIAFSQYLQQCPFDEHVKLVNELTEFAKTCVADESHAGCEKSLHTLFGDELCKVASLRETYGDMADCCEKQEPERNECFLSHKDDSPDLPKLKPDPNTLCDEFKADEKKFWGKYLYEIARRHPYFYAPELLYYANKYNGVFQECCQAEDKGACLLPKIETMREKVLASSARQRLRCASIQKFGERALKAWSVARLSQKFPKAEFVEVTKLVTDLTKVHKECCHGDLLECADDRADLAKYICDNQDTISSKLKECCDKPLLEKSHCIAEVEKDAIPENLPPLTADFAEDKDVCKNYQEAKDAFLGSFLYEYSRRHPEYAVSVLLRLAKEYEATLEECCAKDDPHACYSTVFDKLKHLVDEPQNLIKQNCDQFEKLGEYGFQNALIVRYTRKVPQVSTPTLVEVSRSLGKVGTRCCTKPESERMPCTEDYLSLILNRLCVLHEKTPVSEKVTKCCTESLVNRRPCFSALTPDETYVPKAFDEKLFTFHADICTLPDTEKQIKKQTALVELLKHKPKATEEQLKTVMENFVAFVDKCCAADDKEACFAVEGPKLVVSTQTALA
binder,measurement,setting,value
B1,binding result,[1],no binding (tested: 1000 ng/ml)
same,binding result,[2],no binding (tested: 1000 ng/ml)
same,"IC50 (ng/ml), killing of Carov 3 cells, ATPLite cell viability",[3],31.6 ng/mL
same,"IC50 (ng/ml), killing of Colo205 cells, ATPLite cell viability",[3],5.9 ng/mL
same,"IC50 (ng/ml), killing of Du145 cells, ATPLite cell viability",[3],28.6 ng/mL
same,"IC50 (ng/ml), killing of H-2122 cells, ATPLite cell viability",[3],22.5 ng/mL
same,"IC50 (ng/ml), killing of MDA231 cells, ATPLite cell viability",[3],7.5 ng/mL
same,"IC50 (ng/ml), killing of MIAcap cells, ATPLite cell viability",[3],8.8 ng/mL
same,binding result,[4],no binding (tested: 1000 ng/ml)
B2,EC50 (read off the curve),[5],~0.02 µg/mL
same,binding result,[6],no binding (tested: 1000 ng/ml)
same,"IC50 (read off the curve); cell viability (%) of Jurkat cells, ATPLite, 16 h",[7],~0.02 µg/mL
same,"IC50 (ng/ml), killing of Carov 3 cells, ATPLite cell viability",[8],24.6 ng/mL
same,"IC50 (ng/ml), killing of Colo205 cells, ATPLite cell viability",[8],7.1 ng/mL
same,"IC50 (ng/ml), killing of Du145 cells, ATPLite cell viability",[8],25.3 ng/mL
same,"IC50 (ng/ml), killing of H-2122 cells, ATPLite cell viability",[8],28.5 ng/mL
same,"IC50 (ng/ml), killing of MDA231 cells, ATPLite cell viability",[8],3.8 ng/mL
same,"IC50 (ng/ml), killing of MIAcap cells, ATPLite cell viability",[8],13.2 ng/mL
same,binding result,[9],no binding (tested: 10^4 ng/ml)
same,binding result,[10],no binding (tested: 1000 ng/ml)
same,EC50 (read off the curve),[11],~0.02 µg/mL
B3,binding result,[12],no binding (tested: 1000 ng/ml)
same,binding result,[13],binds
same,binding result,[14],binds
same,binding result,[15],no binding (tested: 1000 ng/ml)
same,binding result,[16],no binding (tested: 1000 ng/ml)
B4,binding result,[17],no binding (tested: 1000 ng/ml)
same,"IC50 (ng/ml), killing of Carov 3 cells, ATPLite cell viability",[18],17.4 ng/mL
same,"IC50 (ng/ml), killing of Colo205 cells, ATPLite cell viability",[18],5.8 ng/mL
same,"IC50 (ng/ml), killing of Du145 cells, ATPLite cell viability",[18],55.6 ng/mL
same,"IC50 (ng/ml), killing of H-2122 cells, ATPLite cell viability",[18],44.1 ng/mL
same,"IC50 (ng/ml), killing of MDA231 cells, ATPLite cell viability",[18],2.2 ng/mL
same,"IC50 (ng/ml), killing of MIAcap cells, ATPLite cell viability",[18],9.5 ng/mL
same,OD 450 nm/650 nm,[19],0.028 OD
same,"IC50 (read off the curve); cell viability (%) of Jurkat cells, ATPLite, 16 h",[7],~0.01 µg/mL
same,binding result,[20],no binding (tested: 1000 ng/ml)
B5,binding result,[21],binds
same,binding result,[22],no binding (tested: 1000 ng/ml)
same,"IC50 (ng/ml), killing of Carov 3 cells, ATPLite cell viability",[18],18.5 ng/mL
same,"IC50 (ng/ml), killing of Colo205 cells, ATPLite cell viability",[18],6.2 ng/mL
same,"IC50 (ng/ml), killing of Du145 cells, ATPLite cell viability",[18],52.3 ng/mL
same,"IC50 (ng/ml), killing of H-2122 cells, ATPLite cell viability",[18],42.1 ng/mL
same,"IC50 (ng/ml), killing of MDA231 cells, ATPLite cell viability",[18],1.5 ng/mL
same,"IC50 (ng/ml), killing of MIAcap cells, ATPLite cell viability",[18],10.1 ng/mL
same,binding result,[23],no binding (tested: 1000 ng/ml)
same,binding result,[24],no binding (tested: 1000 ng/ml)
same,binding result,[25],no binding (tested: 1000 ng/ml)
